Test results from patent publication KR20160086217A (dated 2016).

Tests used:
c-Met [1] = biological target: T1, c-Met (UniProt P08581 25-932, limits assumed); experiment: SPR, Biacore T100; antibody (from GSKO 301 GS cells) captured on Human Fab binder on CM5 chip, c-Met as analyte 25 to 0.78 nmol, 1:1 kinetic fit
T1 construct: also called 항원인 c-Met

c-Met [2] = biological target: T1, c-Met; experiment: SPR, Biacore T100; antibody (from GSKO 301 GS cells) captured on Human Fab binder on CM5 chip, c-Met as analyte, 1:1 kinetic fit; rounded form of the value in r2
c-Met [3] = biological target: T1, c-Met; experiment: SPR, Biacore T100; antibody (from GSKO GLUD1 301 GS cells) captured on Human Fab binder on CM5 chip, c-Met as analyte 25 to 0.78 nmol, 1:1 kinetic fit
c-Met [4] = biological target: T1, c-Met; experiment: SPR, Biacore T100; antibody (from GSKO GLUD1 301 GS cells) captured on Human Fab binder on CM5 chip, c-Met as analyte, 1:1 kinetic fit; rounded form of the value in r2

T1 sequence (P08581 25-932 limits assumed): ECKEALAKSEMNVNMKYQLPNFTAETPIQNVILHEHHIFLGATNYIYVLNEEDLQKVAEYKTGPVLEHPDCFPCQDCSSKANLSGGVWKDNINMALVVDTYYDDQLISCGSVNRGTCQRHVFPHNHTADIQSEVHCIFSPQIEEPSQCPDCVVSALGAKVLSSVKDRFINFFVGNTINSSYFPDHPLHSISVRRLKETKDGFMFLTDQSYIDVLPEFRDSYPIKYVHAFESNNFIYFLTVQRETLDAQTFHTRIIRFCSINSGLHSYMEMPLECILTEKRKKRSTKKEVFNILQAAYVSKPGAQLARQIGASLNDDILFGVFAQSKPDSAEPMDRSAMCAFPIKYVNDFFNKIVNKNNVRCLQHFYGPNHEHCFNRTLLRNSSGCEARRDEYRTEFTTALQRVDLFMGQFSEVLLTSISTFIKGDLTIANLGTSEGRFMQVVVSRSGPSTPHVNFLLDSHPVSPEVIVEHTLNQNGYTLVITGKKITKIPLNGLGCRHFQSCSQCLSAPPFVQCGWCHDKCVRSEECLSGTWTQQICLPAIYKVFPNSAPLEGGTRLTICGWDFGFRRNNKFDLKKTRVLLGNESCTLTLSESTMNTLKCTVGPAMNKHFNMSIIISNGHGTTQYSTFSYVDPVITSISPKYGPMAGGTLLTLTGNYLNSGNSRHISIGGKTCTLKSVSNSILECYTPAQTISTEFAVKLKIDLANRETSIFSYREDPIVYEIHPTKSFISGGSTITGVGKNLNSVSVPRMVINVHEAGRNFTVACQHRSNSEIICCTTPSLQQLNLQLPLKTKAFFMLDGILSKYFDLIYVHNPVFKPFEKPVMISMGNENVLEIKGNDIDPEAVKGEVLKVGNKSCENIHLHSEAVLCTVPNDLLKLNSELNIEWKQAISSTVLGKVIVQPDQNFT

- Kd (c-Met [1]): 0.0573 nM
- Kd (c-Met [2]): 0.06 nM
- Kd (c-Met [3]): 0.0926 nM
- Kd (c-Met [4]): 0.09 nM
B1: 항 c-Met 항체 L3-1Y/IgG2 (antibody, V domains shown)
VH: EVQLVESGGGLVQPGGSLRLSCAASGFTFTDYYMSWVRQAPGKGLEWLGFIRNKANGYTTEYSASVKGRFTISRDNSKNTLYLQMNSLRAEDTAVYYCARDNWFAYWGQGTLVTVSS
VL: DIQMTQSPSSLSASVGDRVTITCKSSQSLLASGNQNNYLAWYQQKPGKAPKMLIIWASTRVSGVPSRFSGSGSGTDFTLTISSLQPEDFATYYCQQSYSRPYTFGQGTKVEIKR
notes: also called S301-12A37 standard; S301-12A37
